Reference: patent US20150361176A1 (GlaxoSmithKline, published 2015)

Assays:
[1] = target: T1, recombinant human TGF-β RII/Fc chimera protein (human, UniProt P37173 24-159); assay: SPR Biacore A100, antigen-Fc captured by anti-human IgG, purified dAb, 1:1 model
T1 construct: range 24-159; Made in HEK-F cells; Biotinylated where it was put on SA chips, otherwise captured by anti-human IgG; also called human TGFbRII/Fc; hRII-Fc; not shown: Fc region of human IgG1
Description: BIACORE™ A100 analysis was carried out using a capture surface on a CM5 chip. Anti-human IgG was used as the capturing agent and coupled to a CM5 biosensor chip by primary amine coupling. The Antigen molecule fused to the human Fc was captured on this immobilised surface to a level from 200 to 300 resonance units and supernatants or purified domain antibodies were passed over this captured surface. An injection of media or buffer over the captured antigen surface was used for double referencing. On each flow cell, a protein A spot allowed to confirm the presence of domain antibody on each sample injected. […] All runs were carried out at 25° C. using HBS-EP buffer as running buffer. Data were generated using the BIACORE™ A100 and analyzed using its inherent software. Kinetics from purified samples were fitted to the 1:1 binding model while supernatant off-rates were analyzed using the 1:1 dissociation model and/or using the binding level and the stability level of each sample in comparison to the parent molecule.
A selection of mutants with improved off-rate were purified and subjected to full BIACORE™ A100 kinetic analysis to determine their affinity (Table 10). The thermal stability of the mutants was also determined by generation of melting profiles in the presence of SYPRO™ Orange (Invitrogen). Briefly, the purified dAbs were diluted to 50 and 100 ug/ml in a 1:500 dilution of SYPRO™ Orange in PBS, and subjected to a 30-90° C. melt curve in a Mini OPTICON™ PCR machine (BioRad). The Tm of the major positive transition was determined at each concentration and used to calculate an estimated Tm value at 1 mg/ml as an indication of the melting temperature for comparison (Table 10).

[2] = target: human TGF-βRII on cells (SBE-bla HEK 293T cells; A549 cells) (human, UniProt P37173 23-567); assay: cell-based or functional assay
Sequence of human TGF-βRII on cells (SBE-bla HEK 293T cells; A549 cells) (P37173 23-567): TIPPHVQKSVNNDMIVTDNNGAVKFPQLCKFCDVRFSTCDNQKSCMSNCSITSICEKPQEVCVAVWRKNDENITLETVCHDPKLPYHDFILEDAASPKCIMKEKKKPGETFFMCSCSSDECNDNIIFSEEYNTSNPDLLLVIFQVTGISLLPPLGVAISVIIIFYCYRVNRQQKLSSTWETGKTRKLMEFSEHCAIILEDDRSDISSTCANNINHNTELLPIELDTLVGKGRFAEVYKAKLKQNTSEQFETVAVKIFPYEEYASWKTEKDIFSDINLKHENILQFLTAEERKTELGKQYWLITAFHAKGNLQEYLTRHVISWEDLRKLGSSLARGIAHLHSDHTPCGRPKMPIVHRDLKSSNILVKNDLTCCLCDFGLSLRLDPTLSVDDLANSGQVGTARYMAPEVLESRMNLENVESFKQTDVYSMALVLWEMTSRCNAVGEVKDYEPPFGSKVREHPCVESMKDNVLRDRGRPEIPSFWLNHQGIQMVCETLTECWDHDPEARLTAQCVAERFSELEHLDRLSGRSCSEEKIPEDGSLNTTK

[3] = target: T1, recombinant human TGF-β RII/Fc chimera …; assay: SPR Biacore T200, receptor-Fc captured by anti-human IgG, dAb as analyte, 1:1 model
Description: (§1) Anti-human IgG was immobilised on a Biacore CM4 chip by primary amine coupling according to the manufacturer's instructions. Human TGF-β RII/Fc, cynomolgus TGF-β RII/Fc or human Fc fragment were captured on this surface. Domain antibodies were passed over the two captured receptors at 3 concentrations of 100, 10 and 1 nM (DOM23h-439 dAbs) or 100, 25 and 6.25 nM (DOM23h-271 dAbs). Only the 100 nM concentration of each dab was passed over human Fc fragment to confirm specificity of binding to the extracellular TGF-β RII domain. An injection of buffer over the captured antigen surface was used for double referencing. […] All runs were carried out at 25° C. using HBS-EP buffer as running buffer. Data were generated using the BIACORE™ T200 and fitted to the 1:1 binding model inherent to the software. […] The DOM23h-271 dAbs and the DOM23h-439 lineages were run in separate experiments.

cynomolgus TGF-β RII/Fc = target: T2, cynomolgus TGF-β RII/Fc (cynomolgus); assay: as above
T2 construct: extracellular domain; also called Cyno TGFBRII; Cyno TGFbRII
Description: as §1

T1 sequence (P37173 24-159 limits assumed, stated change not applied): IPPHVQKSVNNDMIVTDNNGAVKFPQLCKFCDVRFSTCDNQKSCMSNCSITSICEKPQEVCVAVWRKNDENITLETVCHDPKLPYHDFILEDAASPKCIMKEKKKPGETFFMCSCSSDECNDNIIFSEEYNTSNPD

| Kd [1] [pM] | IC50 nM, Mean (SBE-bla HEK 293T cell sensor assay) [2] [nM] | Kd [3] [pM] | koff [3] [s⁻¹] | kon [3] [M⁻¹ s⁻¹] | Kd (cynomolgus TGF-β RII/Fc) [pM] | koff (cynomolgus TGF-β RII/Fc) [s⁻¹] | kon (cynomolgus TGF-β RII/Fc) [M⁻¹ s⁻¹] | Binder |
| --- | --- | --- | --- | --- | --- | --- | --- | --- |
| 2240 | – | – | – | – | – | – | – | DOM23h-271 mutant 1A2 (R at 61, A at 64) (VHH, name in Kabat numbering, human VH dAb; expressed from pDOM13) VHH: EVQLLESGGGLVQPGGSLRLSCAASGFTFTEYRMWWVRQAPGKGLEWVSAIEPIGNRTYYARSVAGRFTISRDNSKNTLYLQMNSLRAEDTAVYYCAKQIPGRKWTANSRFDYWGQGTLVTVSS |
| 1790 | – | – | – | – | – | – | – | DOM23h-271 mutant 1B2 (V at 61, W at 64) (VHH, name in Kabat numbering, human VH dAb; expressed from pDOM13; also called VW) VHH: EVQLLESGGGLVQPGGSLRLSCAASGFTFTEYRMWWVRQAPGKGLEWVSAIEPIGNRTYYAVSVWGRFTISRDNSKNTLYLQMNSLRAEDTAVYYCAKQIPGRKWTANSRFDYWGQGTLVTVSS |
| 1170 | – | – | – | – | – | – | – | DOM23h-271 mutant 1D9 (R at 61, D at 64) (VHH, name in Kabat numbering, human VH dAb; expressed from pDOM13; also called RD) VHH: EVQLLESGGGLVQPGGSLRLSCAASGFTFTEYRMWWVRQAPGKGLEWVSAIEPIGNRTYYARSVDGRFTISRDNSKNTLYLQMNSLRAEDTAVYYCAKQIPGRKWTANSRFDYWGQGTLVTVSS |
| 1880 | – | – | – | – | – | – | – | DOM23h-271 mutant 1B11 (R at 61, V at 64) (VHH, name in Kabat numbering, human VH dAb; expressed from pDOM13; also called RV) VHH: EVQLLESGGGLVQPGGSLRLSCAASGFTFTEYRMWWVRQAPGKGLEWVSAIEPIGNRTYYARSVVGRFTISRDNSKNTLYLQMNSLRAEDTAVYYCAKQIPGRKWTANSRFDYWGQGTLVTVSS |
| – | 22.7 | 74.1 | 0.000411 | 5.55e+06 | 71.2 | 0.000427 | 6e+06 | DOM23h-271-129 (VHH, expressed from pC10) VHH: EVQLLESGGGLVQPGGSLRLSCAASGSTFTEYRMWWVRQAPGKGLEWVSAIEPIGHRTYYADSVKGRFTISRDNSKNTLYLQMNSLRAEDTAVYYCAKQAPNQRYVARGRLDYWGQGTLVTVSS |
| 970 | – | – | – | – | – | – | – | DOM23h-271 mutant 1G11 (R at 61, M at 64) (VHH, name in Kabat numbering, human VH dAb; expressed from pDOM13; also called RM) VHH: EVQLLESGGGLVQPGGSLRLSCAASGFTFTEYRMWWVRQAPGKGLEWVSAIEPIGNRTYYARSVMGRFTISRDNSKNTLYLQMNSLRAEDTAVYYCAKQIPGRKWTANSRFDYWGQGTLVTVSS |
| 3690 | – | – | – | – | – | – | – | DOM23h-271 mutant 1D5 (K at 61, F at 64) (VHH, name in Kabat numbering, human VH dAb; expressed from pDOM13; also called KF) VHH: EVQLLESGGGLVQPGGSLRLSCAASGFTFTEYRMWWVRQAPGKGLEWVSAIEPIGNRTYYAKSVFGRFTISRDNSKNTLYLQMNSLRAEDTAVYYCAKQIPGRKWTANSRFDYWGQGTLVTVSS |
| 1170 | – | – | – | – | – | – | – | DOM23h-271 mutant 1E6 (R at 61, Y at 64) (VHH, name in Kabat numbering, human VH dAb; expressed from pDOM13; also called RY) VHH: EVQLLESGGGLVQPGGSLRLSCAASGFTFTEYRMWWVRQAPGKGLEWVSAIEPIGNRTYYARSVYGRFTISRDNSKNTLYLQMNSLRAEDTAVYYCAKQIPGRKWTANSRFDYWGQGTLVTVSS |
| – | 18.3 | 102 | 0.000293 | 2.89e+06 | 104 | 0.00032 | 3.08e+06 | DOM23h-271-123 (VHH, expressed from pC10) VHH: EVQLLESGGGLVQPGGSLRLSCAASGSTFTEYRMWWVRQAPGKGLEWVSAIEPIGHRTYYADSVKGRFTISRDNSKNTLYLQMNSLRAEDTAVYYCAKQAPGEKWARRWDLDYWGQGTLVTVSS |
| – | 14 | 104 | 0.00139 | 1.34e+07 | 366 | 0.00342 | 9.34e+06 | DOM23h-439-40 (DOM23h-439-25 + C-terminal Alanine) (VHH, human VH dAb) VHH: EVQLLESGGGLVQPGGSLRLSCAASGFTFGTEQMWWVRQAPGKGLEFVSRIDSPGGRTYYADSVKGRFTISRDNSKNTLYLQMNSLRAEDTAVYYCAKRRPTGVSGTFYDYWGQGTLVTVSS |
| – | 1.3 | 2.89 | 6.91e-05 | 2.39e+07 | 6.77 | 0.000147 | 2.17e+07 | DOM23h-439-44 (DOM23h-439-25 + C-terminal Alanine + 61N64R) (VHH, human VH dAb) VHH: EVQLLESGGGLVQPGGSLRLSCAASGFTFGTEQMWWVRQAPGKGLEFVSRIDSPGGRTYYANSVRGRFTISRDNSKNTLYLQMNSLRAEDTAVYYCAKRRPTGVSGTFYDYWGQGTLVTVSS |
| – | 1.7 | 10.4 | 0.000187 | 1.81e+07 | 33.3 | 0.000522 | 1.57e+07 | DOM23h-439-41 (DOM23h-439-25 + C-terminal Alanine + 48I) (VHH, human VH dAb) VHH: EVQLLESGGGLVQPGGSLRLSCAASGFTFGTEQMWWVRQAPGKGLEFISRIDSPGGRTYYADSVKGRFTISRDNSKNTLYLQMNSLRAEDTAVYYCAKRRPTGVSGTFYDYWGQGTLVTVSS |
| – | 0.7 | 3.2 | 0.000131 | 4.09e+07 | 11 | 0.00041 | 3.72e+07 | DOM23h-439-42 (DOM23h-439-25 + C-terminal Alanine + 61N) (VHH, human VH dAb) VHH: EVQLLESGGGLVQPGGSLRLSCAASGFTFGTEQMWWVRQAPGKGLEFVSRIDSPGGRTYYANSVKGRFTISRDNSKNTLYLQMNSLRAEDTAVYYCAKRRPTGVSGTFYDYWGQGTLVTVSS |
| – | 1 | 42.3 | 0.000373 | 8.83e+06 | 149 | 0.0012 | 8.04e+06 | DOM23h-439-43 (DOM23h-439-25 + C-terminal Alanine + 64R) (VHH, human VH dAb) VHH: EVQLLESGGGLVQPGGSLRLSCAASGFTFGTEQMWWVRQAPGKGLEFVSRIDSPGGRTYYADSVRGRFTISRDNSKNTLYLQMNSLRAEDTAVYYCAKRRPTGVSGTFYDYWGQGTLVTVSS |
| – | 37 | 123 | 0.000309 | 2.51e+06 | 124 | 0.000324 | 2.61e+06 | DOM23h-271-130 (DOM23h-271-123 + C-terminal Alanine) (VHH, human VH dAb) VHH: EVQLLESGGGLVQPGGSLRLSCAASGSTFTEYRMWWVRQAPGKGLEWVSAIEPIGHRTYYADSVKGRFTISRDNSKNTLYLQMNSLRAEDTAVYYCAKQAPGEKWARRWDLDYWGQGTLVTVSS |
| – | 21 | 18.2 | 0.000222 | 1.22e+07 | 18.5 | 0.000238 | 1.29e+07 | DOM23h-271-132 (DOM23h-271-123 + C-terminal Alanine + 64R) (VHH, human VH dAb) VHH: EVQLLESGGGLVQPGGSLRLSCAASGSTFTEYRMWWVRQAPGKGLEWVSAIEPIGHRTYYADSVRGRFTISRDNSKNTLYLQMNSLRAEDTAVYYCAKQAPGEKWARRWDLDYWGQGTLVTVSS |
| – | 2.4 | 9.09 | 7.7e-05 | 8.47e+06 | 9.85 | 8.71e-05 | 8.84e+06 | DOM23h-271-133 (DOM23h-271-123 + C-terminal Alanine + 61N64R) (VHH, human VH dAb) VHH: EVQLLESGGGLVQPGGSLRLSCAASGSTFTEYRMWWVRQAPGKGLEWVSAIEPIGHRTYYANSVRGRFTISRDNSKNTLYLQMNSLRAEDTAVYYCAKQAPGEKWARRWDLDYWGQGTLVTVSS |
| – | 6.3 | 21.7 | 0.000136 | 6.26e+06 | 21.2 | 0.000144 | 6.81e+06 | DOM23h-271-131 (DOM23h-271-123 + C-terminal Alanine + 61N) (VHH, human VH dAb) VHH: EVQLLESGGGLVQPGGSLRLSCAASGSTFTEYRMWWVRQAPGKGLEWVSAIEPIGHRTYYANSVKGRFTISRDNSKNTLYLQMNSLRAEDTAVYYCAKQAPGEKWARRWDLDYWGQGTLVTVSS |
